Patent US20260028417A1 (SICHUAN KELUN BIOTECH BIOPHARMACEUTICAL, published 2026)
Blank lines part the entries; values can stand above or below the binder they belong to.

What was measured:
human HER3 on cells [1] = target: T1, human HER3 on cells (human, UniProt P21860 20-1342); test: cell-based or functional assay
[2] = target: T2, human HER3 protein (extracellular sequence with six histidines at the C-terminal) (human, UniProt P21860 20-643); test: ELISA, coated human HER3-His
T2 construct: extracellular domain; Made in HEK293 cells; also called Human HER3-His
Procedure: (§1) The plate was washed 5 times with PBST (0.2% Tween-20), and dried, then 100 μl of TMB (InnoReagents) chromogenic substrate was added to each well, reacted at room temperature for 3-5 minutes, then 50 μl of 2N H₂SO₄ was added to each well to stop the chromogenic reaction, and the absorbance value at OD450 nm was read with a microplate reader. The raw data were imported into GraphPad Prism 6 software for nonlinear curve fitting, and EC50 values were calculated.

human HER3 on cells [3] = target: T1, human HER3 on cells; test: flow cytometry on T47D cells
Procedure: (§2) Data processing: the Median PE values were exported, then imported into GraphPad Prism 6 software, and EC50 values were calculated.

[4] = target: T3, monkey HER3 protein (extracellular sequence with six histidines at the C-terminal) (monkey); test: ELISA, coated monkey HER3-His
T3 construct: Made in HEK293 cells; also called Monkey HER3-His
T3 chain: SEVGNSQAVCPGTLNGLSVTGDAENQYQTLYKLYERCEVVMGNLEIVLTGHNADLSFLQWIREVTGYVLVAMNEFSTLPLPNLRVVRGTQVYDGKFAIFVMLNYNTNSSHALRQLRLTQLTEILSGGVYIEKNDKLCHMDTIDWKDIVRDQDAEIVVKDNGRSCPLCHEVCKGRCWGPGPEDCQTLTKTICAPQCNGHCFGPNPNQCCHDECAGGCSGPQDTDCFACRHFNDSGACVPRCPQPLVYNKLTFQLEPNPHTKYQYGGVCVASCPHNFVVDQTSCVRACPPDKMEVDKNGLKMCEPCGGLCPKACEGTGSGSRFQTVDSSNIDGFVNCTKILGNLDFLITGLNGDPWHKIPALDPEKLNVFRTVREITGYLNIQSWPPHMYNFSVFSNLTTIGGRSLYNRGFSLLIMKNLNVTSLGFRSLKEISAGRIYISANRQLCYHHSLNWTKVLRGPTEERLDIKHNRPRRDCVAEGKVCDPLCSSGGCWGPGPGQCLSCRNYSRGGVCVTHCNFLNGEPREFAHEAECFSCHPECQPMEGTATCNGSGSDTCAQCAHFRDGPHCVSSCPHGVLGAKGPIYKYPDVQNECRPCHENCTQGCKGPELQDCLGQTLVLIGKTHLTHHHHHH
Procedure: as §1

human HER3 on cells [5] = target: T1, human HER3 on cells; test: flow cytometry on NCI-N87 cells
Procedure: as §2

human HER3 on cells [6] = target: T1, human HER3 on cells; test: flow cytometry on NCI-H358 cells
Procedure: as §2

rat HER3 protein [7] = target: T4, rat HER3 protein (rat, UniProt Q62799 20-643); test: ELISA, rat HER3 protein coated at 1 µg/ml, anti-human IgG-HRP, OD450
T4 construct: whole entry named; also called Rat HER3-His; rat protein
Procedure: as §1

[8] = target: T2, human HER3 protein (extracellular …); test: BLI (ForteBio), antibody captured on Protein A sensor, human HER3-His in solution, 1:1 global fit
Procedure: (§3) The measured results were entered into Data Analysis 11.0 software, by using 1:1 mode, and global fitting; the results were analyzed to obtain the association rate, dissociation rate and affinity constant.

[9] = target: T3, monkey HER3 protein (extracellular …); test: BLI (ForteBio), antibody captured on Protein A sensor, monkey HER3-His in solution, 1:1 global fit
Procedure: as §3

[10] = target: T2, human HER3 protein (extracellular …); test: competition ELISA on coated human HER3 protein (1 µg/ml); competitor: biotin-labelled U1-59 (U1-59-Bio, diluted to 50 ng/ml); streptavidin-HRP, OD450
Procedure: (§4) The plate was washed with PBST (0.2% Tween-20) for 3 times, and dried, 100 μl of diluted Peroxidase-conjugated Streptavidin secondary antibody (Proteintech) was added to each well, and incubated at room temperature for 1 hour; the plate was washed 5 times with PBST (0.2% Tween-20), and dried, 100 μl of TMB (InnoReagents) chromogenic substrate was added to each well, reacted at room temperature for 3-5 minutes; 50 μl of 2N H₂SO₄ was added to each well to stop the chromogenic reaction, and OD450 nm absorbance value was read with a microplate reader. The raw data were imported into GraphPad Prism 6 software for nonlinear curve fitting (4-parameter).

[11] = target: T2, human HER3 protein (extracellular …); test: competition ELISA on coated human HER3 protein (1 µg/ml); competitor: biotin-labelled 47A3E3-hIgG (47A3E3-hIgG-Bio, diluted to 15 ng/mL); streptavidin-HRP, OD450
Procedure: as §4

[12] = target: T2, human HER3 protein (extracellular …); test: ELISA, coated human HER3 protein, chimeric antibody
Procedure: (§5) The plate was washed 5 times with PBST (0.2% Tween-20). After the plate was dried, 100 μl of TMB (CoWin Biotech) chromogenic substrate was added to each well, reacted at room temperature for 3-5 minutes; 50 μl of 2N H₂SO₄ was added to each well to stop the chromogenic reaction, and absorbance value at OD450 nm was read with a microplate reader. The raw data were imported into GraphPad Prism 6 software for nonlinear curve fitting, and the EC50 values of each antibody binding to human HER3 and monkey HER3 were calculated.

[13] = target: T3, monkey HER3 protein (extracellular …); test: ELISA, coated monkey HER3 protein, chimeric antibody
Procedure: as §5

human HER3 on cells [14] = target: T1, human HER3 on cells; test: cell-based or functional assay; remark: listed apart in the source
human HER3 on cells [15] = target: T1, human HER3 on cells; test: cell-based or functional assay; remark: listed apart in the source
human HER3 on cells [16] = target: T1, human HER3 on cells; test: cell-based or functional assay; remark: listed apart in the source
human HER3 on cells [17] = target: T1, human HER3 on cells; test: competition flow cytometry on adherent cells (cell line not named in paragraph 175); competitor: 22B6D2-hIgG-Bio, final 25 ng/ml; PE streptavidin
From the text: (§6) Data processing: the Median PE values were exported, and then imported into GraphPad Prism 6 software for nonlinear curve fitting (4-parameter).

[18] = target: T2, human HER3 protein (extracellular …); test: competition ELISA on coated human HER3 protein (1 µg/ml); competitor: biotin-labelled 22B6D2-hIgG (22B6D2-hIgG-Bio, diluted to 3 ng/mL); streptavidin-HRP, OD450
Procedure: as §4

rat HER3 protein [19] = target: T4, rat HER3 protein; test: ELISA, coated rat HER3-His
Procedure: as §1

human HER3 on cells [20] = target: T1, human HER3 on cells; test: competition flow cytometry on adherent cells (cell line not named in paragraph 175); competitor: 100H7D3-hIgG-Bio, final 200 ng/ml; PE streptavidin
From the text: as §6

T4 sequence (Q62799 20-643): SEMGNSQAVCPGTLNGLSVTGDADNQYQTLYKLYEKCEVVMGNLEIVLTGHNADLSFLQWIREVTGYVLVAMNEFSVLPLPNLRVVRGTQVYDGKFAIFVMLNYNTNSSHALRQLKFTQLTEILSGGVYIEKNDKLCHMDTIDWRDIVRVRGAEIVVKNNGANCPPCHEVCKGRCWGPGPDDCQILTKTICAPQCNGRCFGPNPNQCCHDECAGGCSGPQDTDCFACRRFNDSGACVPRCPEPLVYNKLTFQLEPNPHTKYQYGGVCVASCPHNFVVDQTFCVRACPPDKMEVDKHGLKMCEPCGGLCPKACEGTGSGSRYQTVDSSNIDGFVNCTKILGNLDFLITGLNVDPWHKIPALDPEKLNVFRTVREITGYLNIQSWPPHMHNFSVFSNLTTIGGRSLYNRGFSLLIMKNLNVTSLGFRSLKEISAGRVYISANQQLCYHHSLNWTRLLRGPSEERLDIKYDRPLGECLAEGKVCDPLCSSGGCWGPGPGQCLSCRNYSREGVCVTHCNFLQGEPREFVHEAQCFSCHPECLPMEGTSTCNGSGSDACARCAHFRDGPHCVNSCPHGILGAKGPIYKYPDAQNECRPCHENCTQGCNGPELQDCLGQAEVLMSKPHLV

B1: 47A3E3-hIgG (anti-human HER3 fully human antibody) (antibody, V domains shown)
VH: EVQLQESGPGLVKPSQTLSLTCAISGDSVSSSQSTWNWIRQSPSRGLEWLGRTFYRSRWYNDYALSMKSRITINPDTSKNQFSLQLNPVTPEDTAVYYCARDTYYYGSGGFDYWGQGSRVTVSS
VL: DIQMTQSPSTLSASVGDRVTITCRASQSLSRWLAWYQQKPEKAPKLLIYKASSLESGVPSRFSGSGSGTEFTLTISTLQPDDFATYYCQQYKNYYSFGQGTKLEIKR
notes: Human IgG1/kappa, expressed in CHO-S cells; also called 47A3E3-hIgG-Bio (biotin-labelled)
- ADCC activity, EC50 (Jurkat-NFAT/luciferase-CD16a reporter with CHO-S-hHER3 target cells) (human HER3 on cells [1]): 0.0223 µg/mL
- EC50 [2]: 0.00713 µg/mL
- EC50 (human HER3 on cells [3]): 0.0601 µg/mL
- EC50 [4]: 0.00666 µg/mL
- EC50 (human HER3 on cells [5]): 0.0923 µg/mL
- EC50 (human HER3 on cells [6]): 0.0989 µg/mL
- binding result (rat HER3 protein [7]): no binding
- Kd [8]: 29.1 nM
- koff [8]: 0.0104 s⁻¹
- kon [8]: 356000 M⁻¹ s⁻¹
- Kd [9]: 74.8 nM
- koff [9]: 0.0111 s⁻¹
- kon [9]: 148000 M⁻¹ s⁻¹
- IC50 (read off the curve) [10]: ~0.1 µg/mL
- IC50 (read off the curve) [11]: ~0.5 µg/mL

B2: 47A3E3 (anti-human HER3 chimeric antibody) (antibody, V domains shown)
VH: B1 VH
VL: DIQMTQSPSTLSASVGDRVTITCRASQSLSRWLAWYQQKPEKAPKLLIYKASSLESGVPSRFSGSGSGTEFTLTISTLQPDDFATYYCQQYKNYYSFGQGTKLEIK
- EC50 [12]: 0.0096 µg/mL
- EC50 [13]: 0.0101 µg/mL

B3: 44A4A11 (anti-human HER3 chimeric antibody) (antibody, V domains shown)
VH: EVQLLESGGGLVQPGGSLRLSCAASGFTFSSYAMNWVRQAPGKGLEWVSSISDSGGSTYYADSVKGRFTISRDNSKNTLYLQMNSLRAEDTAVYYCAKDGGISMVRGVIIEEGYFDLWGRGTLVTSPQ
VL: DIQLTQSPSFLSASVGDRVTITCRASQGISSYLAWYQQKPGKAPKLLIYVVSTLQSGVPSRFSGSGSGTEFTLTISSLQPEDFATYYCHQLNSYPLTFGGGTKVEIK
- EC50 [12]: 0.0121 µg/mL
- EC50 [13]: 0.0065 µg/mL

B4: 22B6D2-hIgG (anti-human HER3 fully human antibody) (antibody, V domains shown)
VH: EVHLVESGGGVVQPGRSLRLSCATSGFTFRSYGMHWVRQAPGKGLEWVAVIWYDGSNKYYADSVKGRFTISRDISKNTLYLQMNSLTAEDTAVYYCARYYYDSNGYYDAFDIWGQGTMVTVSS
VL: DIQLTQSPSFLSASVGDRVTITCRASQGISNYLAWYQQKPGKAPKLLIFAASTLQSGVPSRFSGSGSGAEFTLTISSLEPEDFATYYCQQLNSYPITFGQGTRLEIKR
notes: Human IgG1/kappa, expressed in CHO-S cells; also called 22B6D2-hIgG-Bio (biotin-labelled)
- ADCC activity, enhancement against U1-59 (human HER3 on cells [14]): 1.86 fold
- ADCC activity, EC50 (Jurkat-NFAT/luciferase-CD16a reporter with CHO-S-hHER3 target cells) (human HER3 on cells [1]): 0.00973 µg/mL
- IC50 of inhibition of ligand (NRG1)-induced AKT phosphorylation in MCF-7 cells (human HER3 on cells [15]): 0.0912 µg/mL
- internalization activity, EC50, HPAF-II cells (flow cytometry) (human HER3 on cells [16]): 0.0294 µg/mL
- internalization activity, EC50, MDA-MB-453 cells (flow cytometry) (human HER3 on cells [16]): 0.0229 µg/mL
- internalization activity, EC50, NCI-358 cells (flow cytometry) (human HER3 on cells [16]): 0.067 µg/mL
- internalization activity, EC50, WIDR cells (flow cytometry) (human HER3 on cells [16]): 0.0301 µg/mL
- EC50 [2]: 0.00407 µg/mL
- EC50 (human HER3 on cells [3]): 0.0383 µg/mL
- EC50 [4]: 0.00363 µg/mL
- EC50 (human HER3 on cells [5]): 0.0446 µg/mL
- EC50 (human HER3 on cells [6]): 0.0857 µg/mL
- Kd [8]: 11.1 nM
- koff [8]: 0.00397 s⁻¹
- kon [8]: 357000 M⁻¹ s⁻¹
- Kd [9]: 49.6 nM
- koff [9]: 0.00825 s⁻¹
- kon [9]: 166000 M⁻¹ s⁻¹
- IC50 (read off the curve) (human HER3 on cells [17]): ~0.1 µg/mL
- IC50 (read off the curve) [18]: ~0.4 µg/mL

More lines, now with the values ahead:

- EC50 [12]: 0.0054 µg/mL
- EC50 [13]: 0.0071 µg/mL
B5: 22B6D2 (anti-human HER3 chimeric antibody) (antibody, V domains shown)
VH: B4 VH
VL: DIQLTQSPSFLSASVGDRVTITCRASQGISNYLAWYQQKPGKAPKLLIFAASTLQSGVPSRFSGSGSGAEFTLTISSLEPEDFATYYCQQLNSYPITFGQGTRLEIK
notes: detected with anti-Rat IgG

- ADCC activity, EC50 (Jurkat-NFAT/luciferase-CD16a reporter with CHO-S-hHER3 target cells) (human HER3 on cells [1]): 0.0257 µg/mL
- EC50 (rat HER3 protein [19]): 0.00937 µg/mL
- EC50 [2]: 0.00849 µg/mL
- EC50 (human HER3 on cells [3]): 0.203 µg/mL
- EC50 [4]: 0.0131 µg/mL
- EC50 (human HER3 on cells [5]): 0.218 µg/mL
- EC50 (human HER3 on cells [6]): 0.29 µg/mL
- Kd [8]: 7.47 nM
- koff [8]: 0.00226 s⁻¹
- kon [8]: 302000 M⁻¹ s⁻¹
- Kd [9]: 5.44 nM
- koff [9]: 0.000926 s⁻¹
- kon [9]: 170000 M⁻¹ s⁻¹
- IC50 (read off the curve) (human HER3 on cells [20]): ~0.4 µg/mL
B6: 100H7D3-hIgG (anti-human HER3 fully human antibody) (antibody, V domains shown)
VH: EVQLVESGGGVVLPGRSLRLSCAASGFTFSRNAMHWVRQAPGKGLEWVAVIWHDGSNKYYGDSVKGRFTISRDNSKNTLYLQMDSLTAEDTAVYYCARDRGASDFRGQGTLVTVSS
VL: DIQMTQSPSTLSASVGDRVTITCRASQSINNWLAWYQQKPEKAPKLLIYKASSLESGVPSRFSGSGSGTEFTLTISSLQPDDFATYYCQQYNSYSLTFGGGTKVEIKR
notes: Human IgG1/kappa, expressed in CHO-S cells; also called 100H7D3-hIgG-Bio (biotin-labelled)

- EC50 [12]: 0.0131 µg/mL
- EC50 [13]: 0.0187 µg/mL
B7: 100H7D3 (anti-human HER3 chimeric antibody) (antibody, V domains shown)
VH: B6 VH
VL: DIQMTQSPSTLSASVGDRVTITCRASQSINNWLAWYQQKPEKAPKLLIYKASSLESGVPSRFSGSGSGTEFTLTISSLQPDDFATYYCQQYNSYSLTFGGGTKVEIK
